Experimental data as given in patent WO2010064089A1.

What was measured:
[1] = target: C-Met-Rluc and C-Met-K1100A-YFP co-expressed in a CHO stable cell line (c-Met dimerization BRET model) (R. reniformis), P08581; assay: cell-based or functional assay
[2] = target: C-Met-Rluc expressed with a mutated form of Gab1 fused to YFP in a CHO stable cell line (c-Met activation BRET model) (R. reniformis), P08581; assay: cell-based or functional assay

B1: [224G11][IgG2 chim] (antibody)
heavy: EVQLQQSGPELVKPGASVKISCKTSGYIFTAYTMHWVRQSLGESLDWIGGIKPNNGLANYNQKFKGKATLTVDKSSSTAYMDLRSLTSEDSAVYYCARSEITTEFDYWGQGTALTVSSASTKGPSVFPLAPCSRSTSESTAALGCLVKDYFPEPVTVSWNSGALTSGVHTFPAVLQSSGLYSLSSVVTVPSSNFGTQTYTCNVDHKPSNTKVDKTVERKCCVECPPCPAPPVAGPSVFLFPPKPKDTLMISRTPEVTCVVVDVSHEDPEVQFNWYVDGVEVHNAKTKPREEQFNSTFRVVSVLTVVHQDWLNGKEYKCKVSNKGLPAPIEKTISKTKGQPREPQVYTLPPSREEMTKNQVSLTCLVKGFYPSDIAVEWESNGQPENNYKTTPPMLDSDGSFFLYSKLTVDKSRWQQGNVFSCSVMHEALHNHYTQKSLSLSPG
light: DIVLTQSPASLAVSLGQRATISCRASESVDSYANSFMHWYQQKPGQPPKLLIYRASNLESGIPARFSGSGSRTDFTLTINPVEADDVATYYCQQSKEDPLTFGSGTKLEMKRTVAAPSVFIFPPSDEQLKSGTASVVCLLNNFYPREAKVQWKVDNALQSGNSQESVTEQDSKDSTYSLSSTLTLSKADYEKHKVYACEVTHQGLSSPVTKSFNRGEC
Binder B1 has an inhibition of the HGF induced BRET signal, c-Met dimerization model [1] of 62.4% and an inhibition of the HGF effect, c-Met activation BRET model [2] of 66.3%.

B2: murine 224G11 Mab (antibody, mouse IgG1, V domains shown)
VH: EVQLQQSGPELVKPGASVKISCKTSGYIFTAYTMHWVRQSLGESLDWIGGIKPNNGLANYNQKFKGKATLTVDKSSSTAYMDLRSLTSEDSAVYYCARSEITTEFDYWGQGTALTVSS
VL: DIVLTQSPASLAVSLGQRATISCRASESVDSYANSFMHWYQQKPGQPPKLLIYRASNLESGIPARFSGSGSRTDFTLTINPVEADDVATYYCQQSKEDPLTFGSGTKLEMKR
B2 gave a BRET signal with Mab alone, c-Met dimerization model (% of HGF-induced signal) [1] of 21.3, an inhibition of the HGF induced BRET signal, c-Met dimerization model [1] of 59.4% and an inhibition of the HGF induced BRET signal, c-Met activation model [2] of 56.4%.

B3: [224G11][MMCH chim] (antibody, human IgG1, V domains shown)
VH: B2 VH
VL: B2 VL
Work on B3 yielded an inhibition of the HGF induced c-Met dimerization BRET signal [1] of 52.5%, a BRET signal with Mab alone, c-Met activation model [2] of -2% and an inhibition of the HGF induced activation BRET signal [2] of 53.2%.

B4: [224G11][MUP9H chim] (antibody, human IgG1, V domains shown)
VH: B2 VH
VL: B2 VL
B4 was tested, and the inhibition of the HGF induced c-Met dimerization BRET signal [1] was 64.4%, the BRET signal with Mab alone, c-Met activation model [2] was 7.6% and the inhibition of the HGF induced activation BRET signal [2] was 64.4%.

B5: [224G11][MH chim] (antibody, human IgG1, V domains shown)
VH: B2 VH
VL: B2 VL
Work on B5 yielded an inhibition of the HGF induced c-Met dimerization BRET signal [1] of 61.8%, a BRET signal with Mab alone, c-Met activation model [2] of 5.1% and an inhibition of the HGF induced activation BRET signal [2] of 59.7%.

B6: [224G11]chim (antibody, human IgG1, V domains shown)
VH: B2 VH
VL: B2 VL
With B6 the BRET signal with Mab alone, c-Met dimerization model (% of HGF-induced signal) [1] was 46.6, the inhibition of the HGF induced BRET signal, c-Met dimerization model [1] was 28.9% and the BRET signal with Mab alone, c-Met activation model (% of the HGF induced signal) [2] was 32.9. It also gave an inhibition of the HGF induced BRET signal, c-Met activation model [2] of 34.5%.
